From US20220213181A1 (Novartis, published 2022)

T1: Human ANGPTL3(17-460)-FLAG-His-Avi (human, UniProt Q9Y5C1 17-460, biotin on the C-terminal Avi tag (BirA))
T1 construct: also called full length human ANGPTL3; hANGPTL3
T1 sequence: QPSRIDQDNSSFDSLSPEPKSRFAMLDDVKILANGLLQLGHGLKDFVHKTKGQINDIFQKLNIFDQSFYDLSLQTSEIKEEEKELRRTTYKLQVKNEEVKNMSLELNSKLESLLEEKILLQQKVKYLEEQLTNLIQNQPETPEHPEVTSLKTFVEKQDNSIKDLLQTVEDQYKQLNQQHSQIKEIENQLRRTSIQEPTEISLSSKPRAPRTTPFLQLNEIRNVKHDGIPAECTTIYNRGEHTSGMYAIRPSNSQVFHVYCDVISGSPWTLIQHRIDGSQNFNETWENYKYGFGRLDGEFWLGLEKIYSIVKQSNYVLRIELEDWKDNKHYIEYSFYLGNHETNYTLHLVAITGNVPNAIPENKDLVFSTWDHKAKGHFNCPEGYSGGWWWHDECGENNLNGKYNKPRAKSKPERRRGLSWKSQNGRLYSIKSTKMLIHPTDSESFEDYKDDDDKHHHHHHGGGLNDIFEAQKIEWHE

T2: Cynomolgus monkey ANGPTL4(26-161)-FLAG-His6-Avi (cynomolgus monkey, biotin on the C-terminal Avi tag (BirA) where the protein is immobilised)
T2 construct: also called Cyno ANGPTL4 (26-161)
T2 chain: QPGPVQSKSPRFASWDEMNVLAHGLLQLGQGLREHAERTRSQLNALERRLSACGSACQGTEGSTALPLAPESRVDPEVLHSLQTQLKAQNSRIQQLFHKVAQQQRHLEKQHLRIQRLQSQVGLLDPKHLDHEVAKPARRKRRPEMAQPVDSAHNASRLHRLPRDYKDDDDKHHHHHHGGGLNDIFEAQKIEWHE

T3: Cynomolgus monkey ANGPTL4(26-406)-FLAG-His6-Avi (cynomolgus monkey, biotin on the C-terminal Avi tag (BirA) where the protein is immobilised)
T3 construct: also called Cyno ANGPTL4 (26-406)
T3 chain: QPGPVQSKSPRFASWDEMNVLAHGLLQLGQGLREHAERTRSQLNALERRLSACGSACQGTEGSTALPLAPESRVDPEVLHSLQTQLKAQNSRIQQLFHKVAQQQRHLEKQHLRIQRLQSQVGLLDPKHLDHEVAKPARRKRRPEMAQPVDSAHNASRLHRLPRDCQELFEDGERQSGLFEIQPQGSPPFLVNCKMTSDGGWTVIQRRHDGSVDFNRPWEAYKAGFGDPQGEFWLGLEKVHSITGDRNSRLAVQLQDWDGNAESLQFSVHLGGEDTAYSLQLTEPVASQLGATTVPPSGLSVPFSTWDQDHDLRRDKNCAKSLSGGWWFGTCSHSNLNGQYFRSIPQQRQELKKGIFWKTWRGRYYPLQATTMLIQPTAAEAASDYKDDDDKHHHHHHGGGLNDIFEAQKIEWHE

T4: Human ANGPTL4(26-406)-FLAG-His6-Avi (human, UniProt Q9BY76 24-406, biotin on the C-terminal Avi tag (BirA) where the protein is immobilised)
T4 construct: the text calls it 20 amino acids), then QP, ANGPTL4 26-406 and FLAG-His6-Avi; the signal peptide is left out here; also called full length human ANGPTL4; hANGPTL4
T4 sequence: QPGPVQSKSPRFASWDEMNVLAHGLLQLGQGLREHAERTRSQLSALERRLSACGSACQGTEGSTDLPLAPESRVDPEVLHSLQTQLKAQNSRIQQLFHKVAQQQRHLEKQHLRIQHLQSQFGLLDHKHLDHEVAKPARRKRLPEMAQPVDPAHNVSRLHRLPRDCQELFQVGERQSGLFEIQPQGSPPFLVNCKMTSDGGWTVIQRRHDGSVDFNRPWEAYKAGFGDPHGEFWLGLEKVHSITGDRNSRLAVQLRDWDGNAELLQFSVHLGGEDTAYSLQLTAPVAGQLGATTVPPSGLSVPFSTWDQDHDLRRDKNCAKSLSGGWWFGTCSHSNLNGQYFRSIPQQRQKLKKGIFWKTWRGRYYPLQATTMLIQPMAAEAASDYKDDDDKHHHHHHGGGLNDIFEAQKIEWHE

T5: Human ANGPTL4(26-161)-FLAG-His6-Avi (human, biotin on the C-terminal Avi tag (BirA) where the protein is immobilised)
T5 construct: also called human ANGPTL4 N-terminal coiled coil domain; hANGPTL4-CCD
T5 chain: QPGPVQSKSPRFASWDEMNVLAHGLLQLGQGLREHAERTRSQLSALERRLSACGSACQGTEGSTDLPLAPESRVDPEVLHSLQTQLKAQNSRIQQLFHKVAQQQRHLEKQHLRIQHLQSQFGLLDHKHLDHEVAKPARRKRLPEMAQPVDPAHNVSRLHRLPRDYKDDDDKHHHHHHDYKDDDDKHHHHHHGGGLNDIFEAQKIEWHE

B1: NEG276-LALA (antibody, human IgG1, kappa, L234A L235A)
heavy: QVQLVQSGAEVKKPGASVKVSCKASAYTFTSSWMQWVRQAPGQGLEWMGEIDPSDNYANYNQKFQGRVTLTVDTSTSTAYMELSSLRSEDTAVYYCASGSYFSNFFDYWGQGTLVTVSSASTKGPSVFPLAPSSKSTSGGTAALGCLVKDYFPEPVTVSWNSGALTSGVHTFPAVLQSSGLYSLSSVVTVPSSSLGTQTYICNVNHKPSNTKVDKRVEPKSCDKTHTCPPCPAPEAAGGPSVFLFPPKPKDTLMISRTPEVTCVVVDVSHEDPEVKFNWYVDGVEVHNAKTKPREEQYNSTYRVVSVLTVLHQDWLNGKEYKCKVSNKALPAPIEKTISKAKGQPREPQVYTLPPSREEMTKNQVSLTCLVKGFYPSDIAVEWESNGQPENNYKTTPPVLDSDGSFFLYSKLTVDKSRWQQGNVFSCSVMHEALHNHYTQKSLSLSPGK
light: EIVMTQSPATLSVSPGERATLSCKASQDIGSNLNWLQQKPGQAPRRLIYAVSNRGPGIPARFSGSRSGSEYTLTISSLQSEDFAVYYCLQYASSPWTFGQGTKVEIKRTVAAPSVFIFPPSDEQLKSGTASVVCLLNNFYPREAKVQWKVDNALQSGNSQESVTEQDSKDSTYSLSSTLTLSKADYEKHKVYACEVTHQGLSSPVTKSFNRGEC
B2: NEG278 (antibody, human IgG1, kappa, V domains shown)
VH: QVQLVQSGAEVKKPGASVKVSCKASAYTFTSSWMQWVRQAPGQGLEWMGEIDPSDNYANYNQKFQGRVTLTVDTSTSTAYMELSSLRSEDTAVYYCASGSYFSNFFDYWGQGTLVTVSS
VL: EIVMTQSPATLSVSPGERATLSCKASQDIGSNLNWLQQKPGQAPRRLIYAASVREPGIPARFSGSRSGSEYTLTISSLQSEDFAVYYCLQYASSPWTFGQGTKVEIKR
notes: humanized, hIgG1/kappa, parental antibody 19C16

What was measured:
[1] = target: T1, Human ANGPTL3(17-460)-FLAG-His-Avi; assay: Octet (ForteBio) kinetics, biotinylated antigen on streptavidin sensor, IgG in solution; no binding at 25 nM
[2] = target: T2, Cynomolgus monkey …; assay: Octet (ForteBio) kinetics; average KD of the runs
[3] = target: T3, Cynomolgus monkey …; assay: Octet (ForteBio) kinetics; average KD of the runs
[4] = target: T4, Human ANGPTL4(26-406)-FLAG-His6-Avi; assay: Octet (ForteBio) kinetics; average KD of the runs
[5] = target: T5, Human ANGPTL4(26-161)-FLAG-His6-Avi; assay: Octet (ForteBio) kinetics; average KD of the runs
[6] = target: T4, Human ANGPTL4(26-406)-FLAG-His6-Avi; assay: Octet (ForteBio) kinetics, biotinylated antigen on streptavidin sensor, IgG in solution; slower than the limit of detection (about 5e-6 s^-1)
Protocol: Dissociation constants (KD) were determined for selected antibodies of the invention by using an Octet (ForteBio) kinetic binding assay. ForteBio 10× Kinetics Buffer (ForteBio, catalog number 18-5032) was diluted 10-fold with DPBS (Life Technologies, catalog number 14190-136), and the resulting solution was added (0.2 ml per well) to a 96-well plate (Greiner, catalog number 65520). Streptavidin sensors (ForteBio, catalog number 18-5020) were immersed in the solution and equilibrated for at least 10 min at room temperature. In a second 96-well plate (Greiner, catalog number 65520), sensors were washed in 1× Kinetics buffer, and then immersed in 200 ul of 25 nM biotinylated human ANGPTL4 or a biotinylated reference protein (for background subtraction) for 1000 sec at […] room temperature. […] The sensors were then transferred to a well containing 200 μl 1× Kinetics buffer, and antibody dissociation was monitored for 1200 seconds. Background-corrected association and dissociation curves were globally fitted by Octet Software (ForteBio) to generate association (kₐ) and dissociation (kd) rate constants, which in turn were used to calculate equilibrium dissociation constants (KD).

Binder	Kd [1]	Kd [2]	Kd [3]	Kd [4]	Kd [5]	koff [6]
B1	> 6000 pM	56 pM	15 pM	13 pM	38 pM	
B2						6.7e-07 s⁻¹
